Results on 26 molecules are retold here after patent US20200339678A1 (RIGEL PHARMACEUTICALS, published 2020).

Substitutions are numbered along the chain they refer to. In names and notes the source's numbering stands. Some results are limits rather than exact numbers.

Assay [1] addresses T1, His-tagged recombinant Human TIGIT (human, UniProt Q495A1 22-141).
T1 construct: coated antigen of the direct ELISA; not shown: His tag
T1 sequence (looked up): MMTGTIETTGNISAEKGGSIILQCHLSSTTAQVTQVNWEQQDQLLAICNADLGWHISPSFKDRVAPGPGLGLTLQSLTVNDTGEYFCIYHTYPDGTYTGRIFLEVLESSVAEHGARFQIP
As to the kind of experiment: ELISA. As to the method: (§1) Binding affinities for antigen binding to anti-TIGIT monoclonal antibodies were determined by ELISA. […] Antibodies to be tested were diluted to 1 μM in PBS buffer containing 1% BSA and diluted 3-fold in a 10-point curve. […] Detection of the secondary antibody was determined using streptavidin-HRP and TMB reagent. All assays were performed at room temperature. Curve-fitting software was used to determine the EC₅₀ for each antibody.

For assay [2], the target named is T2, His-tagged recombinant Mouse TIGIT (mouse, UniProt P86176 29-148, limits assumed).
T2 construct: coated antigen of the direct ELISA; not shown: His tag
T2 sequence (looked up): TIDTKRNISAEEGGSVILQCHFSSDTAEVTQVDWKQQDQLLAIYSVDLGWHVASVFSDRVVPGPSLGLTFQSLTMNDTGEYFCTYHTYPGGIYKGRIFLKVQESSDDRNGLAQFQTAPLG
As to the kind of experiment: ELISA. As to the method:
as §1

Assay [3] has as its target T3, biotinylated human TIGIT (human, UniProt Q495A1 22-141, biotinylated (EZ-Link NHS-PEG4-biotin kit)).
T3 construct: extracellular domain; also called TIGIT-ECD
T3 sequence (looked up): T1 sequence (looked up)
Description: comp. ELISA vs PVR. As to the method: (§2) Antibodies were serially diluted in a 10-point curve starting at 1 μM in 3-fold steps. […] Units are in microM.

Assay [4] deals with T4, mouse TIGIT-Fc (mouse, UniProt P86176 29-148).
T4 construct: extracellular domain; also called TIGIT-ECD; not shown: Fc
T4 sequence (looked up): T2 sequence (looked up)
Description: comp. ELISA vs PVR. As to the method: as §2

In assay [5] the target is T5, human TIGIT fused to a beta galactosidase portion, on YTS cells (YTS_hTIGIT/hGrb2) (human, UniProt Q495A1 22-244).
T5 sequence (looked up): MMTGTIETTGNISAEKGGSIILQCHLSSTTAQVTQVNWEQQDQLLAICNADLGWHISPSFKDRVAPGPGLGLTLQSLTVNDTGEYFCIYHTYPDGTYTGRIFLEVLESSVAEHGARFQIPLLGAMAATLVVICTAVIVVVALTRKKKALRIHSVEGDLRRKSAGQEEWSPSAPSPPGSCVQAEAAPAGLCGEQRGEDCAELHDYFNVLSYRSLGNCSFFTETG
As to the kind of experiment: cell-based or functional assay.

Assay [6] has as its target T6, His-tagged recombinant Human TIGIT (human, UniProt Q495A1 22-141).
T6 construct: also called VSIG9; VSTM3; not shown: His tag
T6 sequence (looked up): T1 sequence (looked up)
Description: ELISA, coated His-tagged human TIGIT. As to the method: as §1

Assay [7] addresses T7, His-tagged recombinant Mouse TIGIT (mouse, UniProt P86176 29-148, limits assumed).
T7 construct: not shown: His tag
T7 sequence (looked up): T2 sequence (looked up)
Description: ELISA, coated His-tagged mouse TIGIT. As to the method: as §1

B1: Ab1 (Fab, V domains shown)
VH: EVQLLESGGGLVQPGGSLRLSCAASGFTFSSYAMHWVRQAPGKGLEWVSGISSNGGSTSYADSVKGRFTISRDNSKNTLYLQMNSLRAEDTAVYYCARVPYSVWIDYWGQGTLVTVSS
VL: not shown
For the molecule B1, the EC50 in assay [1] came out at 40.3 nM; in assay [2], 181 nM. In addition, the IC50 came to 89.9 nM in assay [3] and 632 nM in assay [4].

B2: Ab1i3 (antibody, V domains shown)
VH: B1 VH
VL: not shown
In the case of B2, in assay [5], the “YTS_hTIGI/hGrbs_EFC_Agonism, 221_WT” value was over 1 µM and the “YTS_hTIGI/hGrbs_EFC_Antagonism, 221_hPVR/ICAM” value came to 0.172 µM.

B3: Ab1i11 (antibody, V domains shown)
VH: B1 VH with W104A
VL: not shown
notes: mIgG2a of Ab1, W100A
Take B3: the IC50 in assay [3] and in assay [4] was over 1000 nM each time.

B4: Ab1i1 (antibody, V domains shown)
VH: B1 VH
VL: not shown
Turning to B4, in assay [5], the “YTS_hTIGI/hGrbs_EFC_Agonism, 221_WT” value stood at 0.0091 µM and the “YTS_hTIGI/hGrbs_EFC_Antagonism, 221_hPVR/ICAM” value was over 1 µM.

B5: Ab1i6 (antibody, V domains shown)
VH: B1 VH with P100A
VL: not shown
notes: mIgG2a of Ab1, P96A
In the case of B5, in assay [1], the EC50 turned out to be 29.4 nM. Moreover, the IC50 is 46.9 nM in assay [3] and over 1000 nM in assay [4].

B6: Ab1i12 (antibody, V domains shown)
VH: B1 VH with Y101A
VL: not shown
notes: mIgG2a of Ab1, Y97A
As to B6, the IC50 in assay [3] and in assay [4] was over 1000 nM throughout.

B7: Ab17i2 (antibody, V domains shown)
VH: B1 VH with H35S, S49A, G50S, S52K, N54S, S57N, S59Y, V99E, V103Y, I105M
VL: not shown
notes: mIgG2a of Ab17
In the case of B7, in assay [2], the EC50 is 0.2 nM. In assay [4], this molecule yielded an IC50 of 1.6 nM. The “YTS_hTIGI/hGrbs_EFC_Antagonism, 221_hPVR/ICAM” value in assay [5] is over 1 µM.

B8: Ab40 (Fab, V domains shown)
VH: EVQLLESGGGLVQPGGSLRLSCAASGFTFSSYGMNWVRQAPGKGLEWVAGIKYSSGNKYYADSVKGRFTISRDNSKNTLYLQMNSLRAEDTAVYYCARGPYDVWMDYWGQGTLVTVSS
VL: not shown
With B8, the EC50 in assay [1] was 0.3 nM. The molecule also gave an IC50 in assay [3] of 3.8 nM. Further, the IC50 in assay [4] was over 1000 nM. Besides, in assay [5], the “YTS_hTIGI/hGrbs_EFC_Agonism, 221_WT” value is over 1 µM and the “YTS_hTIGI/hGrbs_EFC_Antagonism, 221_hPVR/ICAM” value was found to be 0.0023 µM.

B9: Ab1i7 (antibody, V domains shown)
VH: B1 VH with S102A
VL: not shown
notes: mIgG2a of Ab1, S98A
Regarding B9, the EC50 worked out at 3.8 nM in assay [1] and 72.9 nM in assay [2]. Also, the IC50 in assay [3] stood at 16.1 nM; in assay [4], 183 nM.

B10: Ab53i8 (antibody, V domains shown)
VH: B8 VH with G33S, N35H, G50S, G56S, M105L
VL: not shown
notes: mIgG2a of Ab53, S52aY
As to B10, the EC50 in assay [1] turned out to be 1.7 nM. In addition, the IC50 in assay [3] amounted to 12.5 nM. Also, in assay [5], the “YTS_hTIGI/hGrbs_EFC_Agonism, 221_WT” value worked out at 0.02 µM and the “YTS_hTIGI/hGrbs_EFC_Antagonism, 221_hPVR/ICAM” value is over 1 µM.

B11: Ab40i1 (antibody, V domains shown)
VH: B8 VH
VL: not shown
notes: hIgG1 of Ab40
For the molecule B11, the EC50 in assay [1] was 0.3 nM. This molecule yielded an IC50 in assay [3] of 1.3 nM. Further, in assay [4], the IC50 is over 1000 nM. In assay [5], the “YTS_hTIGI/hGrbs_EFC_Agonism, 221_WT” value was over 1 µM and the “YTS_hTIGI/hGrbs_EFC_Antagonism, 221_hPVR/ICAM” value is 0.0002 µM.

B12: Ab17i1 (antibody, V domains shown)
VH: B8 VH with G33A, N35S, G50S, Y53S, S55G, K58T, G99E, D102S, V103Y
VL: not shown
notes: hIgG1 of Ab17
For B12, in assay [2], the EC50 stood at 0.1 nM. The IC50 in assay [4] stood at 1.1 nM. In addition, in assay [5], the “YTS_hTIGI/hGrbs_EFC_Agonism, 221_WT” value came to 0.0012 µM and the “YTS_hTIGI/hGrbs_EFC_Antagonism, 221_hPVR/ICAM” value is over 1 µM.

B13: Ab48 (Fab, V domains shown)
VH: B8 VH with G33S, G50N, Y53S, S55G, G56S, N57S, K58T, Y59S
VL: not shown
Regarding B13, the EC50 in assay [1] stood at 13.8 nM; in assay [2], 41.8 nM. The IC50 was 111 nM in assay [3] and 64.7 nM in assay [4].

B14: Ab1i8 (antibody, V domains shown)
VH: B1 VH with S102G
VL: not shown
notes: mIgG2a of Ab1, S98G
As to B14, the EC50 in assay [1] stood at 1.7 nM; in assay [2], 26.3 nM. The IC50 in assay [3] amounted to 5.8 nM; in assay [4], 99.3 nM.

B15: Ab53i5 (antibody, V domains shown)
VH: B8 VH with N35H, G50S, G56S, M105L
VL: not shown
B15: the concentration giving a half-maximal response (EC50) in assay [1] was found to be 0.2 nM. The IC50 in assay [3] came out at 2.1 nM. This molecule came in with an IC50 in assay [4] of over 1000 nM. Moreover, in assay [5], the “YTS_hTIGI/hGrbs_EFC_Agonism, 221_WT” value was 0.0057 µM and the “YTS_hTIGI/hGrbs_EFC_Antagonism, 221_hPVR/ICAM” value turned out to be 0.526 µM.

B16: Ab53i7 (antibody, V domains shown)
VH: B8 VH with G33S, N35H, G50S, G56S, M105L
VL: not shown
notes: hIgG1 of Ab53, S52aY
With B16, the EC50 in assay [1] amounted to 3.2 nM. In assay [3], this molecule had an IC50 of 36.3 nM. Moreover, in assay [5], the “YTS_hTIGI/hGrbs_EFC_Agonism, 221_WT” value was determined as 0.0681 µM and the “YTS_hTIGI/hGrbs_EFC_Antagonism, 221_hPVR/ICAM” value amounted to 1.93 µM.

B17: Ab40i2 (antibody, V domains shown)
VH: B8 VH with G33S
VL: not shown
notes: hIgG1 of Ab40, G33S
Turning to B17, the EC50 in assay [1] was found to be 0.2 nM. Besides, the IC50 in assay [3] was 2 nM; in assay [4] it was over 1000 nM. In addition, the “YTS_hTIGI/hGrbs_EFC_Agonism, 221_WT” value in assay [5] worked out at 0.0011 µM. Moreover, the “YTS_hTIGI/hGrbs_EFC_Antagonism, 221_hPVR/ICAM” value in assay [5] worked out at 0.186 µM.

B18: Ab16i2 (antibody, V domains shown)
VH: B1 VH with A33S, S49A, G50A, S52K, N54S, G56S, S102D, V103Y, I105L
VL: not shown
For B18, the figures for the EC50 in assay [1] and in assay [2] were 6.4 nM and 0.5 nM, respectively. Also, the IC50 in assay [3] turned out to be 84.6 nM; in assay [4], 4.1 nM.

B19: Ab16i1 (antibody, V domains shown)
VH: B1 VH with A33S, S49A, G50A, S52K, N54S, G56S, S102D, V103Y, I105L
VL: not shown
B19: the values for the EC50 in assay [1] and in assay [2] were 2.1 nM and 0.5 nM, respectively. The concentration for half-maximal inhibition (IC50) is 2.1 nM in assay [3] and 0.4 nM in assay [4].

B20: Ab1i5 (antibody, V domains shown)
VH: B1 VH with I105A
VL: not shown
notes: mIgG2a of Ab1, I100aA
Turning to B20, the EC50 in assay [1] was 8 nM; in assay [2], 6.8 nM. In addition, the IC50 in assay [3] is 2.8 nM; in assay [4] it was 13.3 nM.

B21: Ab1i9 (antibody, V domains shown)
VH: B1 VH with V99A
VL: not shown
notes: mIgG2a of Ab1, V95A
As for B21, the EC50 stood at 0.6 nM in assay [1] and 2.3 nM in assay [2]. Further, the figures for the IC50 in assay [3] and in assay [4] were 2.3 nM and 9 nM, respectively.

B22: Ab165 (Fab, V domains shown)
VH: B8 VH with G33A, N35S, G50A, Y53S, S55T, N57T, K58I, G99E, D102S, M105L
VL: not shown
notes: ARE set
With B22, the values for the EC50 in assay [6] and in assay [7] were 12.8 nM and 228 nM, respectively.

B23: Ab185 (Fab, V domains shown)
VH: B1 VH with H35S, S49A, G50A, S52K, G55A, T58S, S59Y, V99E, V103Y, I105L
VL: not shown
notes: ARE set
For B23, the EC50 was 81.7 nM in assay [6] and 101 nM in assay [7].

B24: Ab169 (Fab, V domains shown)
VH: B1 VH with A33S, S49A, G50S, S52K, N54D, G55T, G56S, S59Y, S102D, V103Y
VL: not shown
notes: ARV set
On to B24, for which the EC50 in assay [6] stood at 153 nM; in assay [7], 110 nM.

B25: Ab175 (Fab, V domains shown)
VH: B1 VH with A33S, G50A, S52N, G55A, T58S, S102G, I105M
VL: not shown
notes: ARV set
As to B25, the EC50 in assay [6] came to 5.2 nM; in assay [7], 39.3 nM.

B26: Ab197 (Fab, V domains shown)
VH: B1 VH with A33S, S49A, G50Y, S52K, S53G, N54S, G55A, S102G, I105M
VL: not shown
notes: ARV set
For B26, the EC50 in assay [6] stood at 11.1 nM; in assay [7], 81.4 nM.
